Measured values: patent publication US20220348650A1 (BIO THERA SOLUTIONS, published 2022)
Residue numbers refer to the chain shown, from its start. Each block holds one binder with its values, some of them ahead of it.

Assays:
mouse TIGIT = molecular target: T1, mouse TIGIT (mouse, UniProt P86176 29-148, limits assumed); experiment: ELISA on mouse TIGIT, OD450
T1 sequence: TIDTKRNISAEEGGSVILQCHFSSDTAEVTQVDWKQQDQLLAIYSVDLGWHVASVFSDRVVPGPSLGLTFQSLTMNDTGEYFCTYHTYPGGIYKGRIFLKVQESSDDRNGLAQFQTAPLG

[1] = molecular target: T2, TIGIT-Fc fusion protein (human TIGIT extracellular region fused to human IgG1 constant region) (human); experiment: competition ELISA: TIGIT-Fc coated at 2 µg/mL, antibody titrated in 2 µg/mL PVR-Fc-bio (blocked ligand), OD450
TIGIT-his tag antigen [2] = molecular target: T3, TIGIT-his tag antigen (UniProt Q495A1 22-141, limits assumed); experiment: SPR-Biacore, TIGIT-his tag antigen
T3 construct: also called univalent TIGIT-his; not shown: his tag
T3 sequence (looked up): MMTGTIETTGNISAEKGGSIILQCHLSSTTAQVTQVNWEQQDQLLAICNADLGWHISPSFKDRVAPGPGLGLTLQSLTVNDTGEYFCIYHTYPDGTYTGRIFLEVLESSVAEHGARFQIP

[3] = molecular target: T4, human TIGIT (antigen of the ELISA and of the m10D8 Biacore assay; construct not stated) (human, UniProt Q495A1 22-141); experiment: ELISA, binding to TIGIT
T4 sequence: T3 sequence (looked up)

TIGIT-his tag antigen [4] = molecular target: T3, TIGIT-his tag antigen; experiment: SPR-Biacore, TIGIT-his tag antigen (second batch)
[5] = molecular target: T4, human TIGIT (antigen of the ELISA and …); experiment: ELISA, binding to TIGIT (FIG. 12)
[6] = molecular target: T5, full-length human TIGIT on the cell surface (Jurkat-hTIGIT 2E6, CTI-Jurkat, primary human CD3+ cells) (human, UniProt Q495A1 22-244); experiment: cell-based or functional assay
T5 sequence (looked up): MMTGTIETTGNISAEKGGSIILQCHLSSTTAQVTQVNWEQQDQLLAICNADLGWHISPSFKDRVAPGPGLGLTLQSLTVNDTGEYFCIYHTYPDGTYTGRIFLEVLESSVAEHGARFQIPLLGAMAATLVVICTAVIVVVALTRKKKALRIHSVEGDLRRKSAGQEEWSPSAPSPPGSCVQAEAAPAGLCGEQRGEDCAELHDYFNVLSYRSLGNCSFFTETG

[7] = molecular target: T2, TIGIT-Fc fusion protein (human TIGIT …); experiment: competition ELISA, blocks PVR binding to TIGIT (method of Example 3)
[8] = molecular target: T5, full-length human TIGIT on the cell …; experiment: flow cytometry competition with 80 nM biotinylated PVR-Fc on Jurkat-hTIGIT cells
Protocol: (§1) The antibody was serially two-fold diluted from 15 nM to the 10th concentration (including 0 nM). The 10 concentration gradients of antibody were separately transferred into 10 centrifuge tubes each containing 1×10⁶ Jurkat-hTIGIT cells. The cells were then resuspended, and the mixture was incubated at 4° C. for 1 hour. The cells were centrifuged. The supernatant was discarded and the cells were washed twice with PBS. The cells were resuspended in 100 μL of 1:2000 diluted streptavidin PE (Thermo, Cat. No.: 12-4317-87) and incubated at 4° C. for 40 minutes. The cells were centrifuged, and the supernatant was discarded. The cells were washed twice with PBS, resuspended in 200 μL of PBS, and were detected for fluorescent signal using a flow analyzer (mean FL2-A). Finally, the collected fluorescent signals were plotted by 4-parameter fitting for analysis, and the IC₅₀ was calculated.

[9] = molecular target: T4, human TIGIT (antigen of the ELISA and …); experiment: ELISA, binding to TIGIT (FIG. 11)
[10] = molecular target: T5, full-length human TIGIT on the cell …; experiment: binding to Jurkat-hTIGIT 2E6 cells, flow cytometry (FIG. 23)
[11] = molecular target: T5, full-length human TIGIT on the cell …; experiment: flow cytometry on Jurkat-hTIGIT cells: antibody titrated against biotinylated PVR-Fc (blocked ligand), detected with streptavidin PE, mean FL2-A
Protocol: as §1

TIGIT-his tag antigen [12] = molecular target: T3, TIGIT-his tag antigen; experiment: SPR-Biacore; series 3.125 to 50 nM printed on the panel
[13] = molecular target: T4, human TIGIT (antigen of the ELISA and …); experiment: Biacore SPR; antigen not given

B1: 10A7 antibody (hamster anti-mouse TIGIT antibody, positive control) (antibody, V domains shown)
VH: EVQLVESGGGLTQPGKSLKLSCEASGFTFSSFTMHWVRQSPGKGLEWVAFIRSGSGIVFYADAVRGRFTISRDNAKNLLFLQMNDLKSEDTAMYYCARRPLGHNTFDSWGQGTLVTVSS
VL: DIVMTQSPSSLAVSPGEKVTMTCKSSQSLYYSGVKENLLAWYQQKPGQSPKLLIYYASIRFTGVPDRFTGSGSGTDYTLTITSVQAEDMGQYFCQQGINNPLTFGDGTKLEIKR
notes: also called positive anti-TIGIT antibody (10A7)
EC50 (read off the curve) (mouse TIGIT): ~0.02 µg/mL
IC50 [1]: 0.263 µg/mL

B2: h10D8V1 (antibody, human IgG1, kappa)
heavy: not shown
light: DIQMTQSPSTLSAFVGDTITITCKASQDVKTAVSWYQQKPGQPPKLLIYWASTRHTGVPDRFSGSGSGTDYTLTISSLQAEDVAVYYCQQHYSTPWTFGQGTKVDIKRTVAAPSVFIFPPSDEQLKSGTASVVCLLNNFYPREAKVQWKVDNALQSGNSQESVTEQDSKDSTYSLSSTLTLSKADYEKHKVYACEVTHQGLSSPVTKSFNRGEC
notes: Humanized m10D8, first round
Kd (TIGIT-his tag antigen [2]): 2.18 nM
koff (TIGIT-his tag antigen [2]): 0.000446 s⁻¹
kon (TIGIT-his tag antigen [2]): 205000 M⁻¹ s⁻¹
EC50 [3]: 0.0762 µg/mL

B5: h10D8V4 (antibody, human IgG1, kappa, V domains shown)
VH: QVQLQESGGGLVQPGGSLRLSCAASGFTFSSYGMSWVRQAPGKGLELVATINSNGGSTYYPDSVKGRFTISRDNAKNTLYLQMNSLRAEDTAVYYCARLGTGTLGFAYWGQGTLVTVSS
VL: DIVMTQSPSTLSASVGDRVTITCKASQDVKTAVSWYQQKPGQPPKLLIYWASTRHTGVPDRFSGSGSGTDYTLTISSLQAEDVAVYYCQQHYSTPWTFGQGTKVEIKR
IC50 [7]: 0.217 µg/mL
IC50 [8]: 15.8 nM
EC50 [9]: 0.0256 µg/mL

B6: h10D8OF (antibody, human IgG1, kappa, V domains shown)
VH: B5 VH with Q5V, L11V, G16R, S21D, A23K, A75S, Y80F
VL: EIVMTQSPATLSLSPGERATLSCKASQDVKTAVSWYQQKPGQAPRLLIYWASTRATGIPARFSGSGSGTDYTLTISSLEPEDFAVYYCQQHYSTPWTFGQGTKVEIKR
notes: Humanized m10D8, second round; LCDR2 is the mutant WASTRAT; also called anti-TIGIT antibody h10D8OF
IC50 [7]: 0.159 µg/mL
Kd (TIGIT-his tag antigen [4]): 3.63 nM
koff (TIGIT-his tag antigen [4]): 0.00183 s⁻¹
kon (TIGIT-his tag antigen [4]): 502000 M⁻¹ s⁻¹
EC50 [10]: 0.696 nM
IC50 [11]: 0.656 nM
IC50 [8]: 11.3 nM
EC50 [5]: 0.0427 µg/mL
EC50 [9]: 0.0233 µg/mL
ADCC activity EC50 [6]: 0.125 nM

B9: Tiragolumab (positive control antibody) (antibody, human IgG1, kappa, V domains shown)
VH: EVQLQQSGPGLVKPSQTLSLTCAISGDSVSSNSAAWNWIRQSPSRGLEWLGKTYYRFKWYSDYAVSVKGRITINPDTSKNQFSLQLNSVTPEDTAVFYCTRESTTYDLLAGPFDYWGQGTLVTVSS
VL: not shown
Kd (TIGIT-his tag antigen [12]): 0.133 nM
IC50 [7]: 0.429 µg/mL
Kd (TIGIT-his tag antigen [4]): 0.113 nM
koff (TIGIT-his tag antigen [4]): 9.24e-05 s⁻¹
kon (TIGIT-his tag antigen [4]): 818000 M⁻¹ s⁻¹
EC50 [10]: 1.91 nM
IC50 [11]: 2.38 nM
EC50 [5]: 0.0536 µg/mL

The remaining lines, values ahead:

Kd (TIGIT-his tag antigen [2]): 2.55 nM
koff (TIGIT-his tag antigen [2]): 0.000492 s⁻¹
kon (TIGIT-his tag antigen [2]): 193000 M⁻¹ s⁻¹
EC50 [3]: 0.0924 µg/mL
Kd (TIGIT-his tag antigen [4]): 0.468 nM
koff (TIGIT-his tag antigen [4]): 0.00048 s⁻¹
kon (TIGIT-his tag antigen [4]): 1.02e+06 M⁻¹ s⁻¹
EC50 [5]: 0.0531 µg/mL
B3: h10D8V2 (antibody, human IgG1, kappa)
heavy: not shown
light: B2 light
notes: Same variable regions as h10D8V1; differs at EU positions 356 and 358 of the constant region

ADCC activity EC50 [6]: 0.0152 nM
ADCC activity, fold of h10D8OF [6]: 8.8 times that of h10D8OF
B4: h10D8OFKF (antibody, human IgG1, kappa, V domains shown)
VH: B5 VH with Q5V, L11V, G16R, S21D, A23K, A75S, Y80F
VL: B6 VL
modifications: fucose removed from the glycan (made in engineered CHO host cells)

IC50 [7]: 0.284 µg/mL
IC50 [8]: 10.4 nM
EC50 [9]: 0.0241 µg/mL
B7: h10D8V5 (antibody, human IgG1, kappa, V domains shown)
VH: B5 VH with A40N, G42D, G44R, V93M
VL: B5 VL with S9K, P43S, V85L, Q100G

Kd (TIGIT-his tag antigen [2]): 14.1 nM
koff (TIGIT-his tag antigen [2]): 0.00114 s⁻¹
kon (TIGIT-his tag antigen [2]): 81200 M⁻¹ s⁻¹
EC50 [3]: 0.0526 µg/mL
B8: h10D8V3 (antibody, human IgG1, kappa, V domains shown)
VH: B5 VH with Q1E, Q5V, A75S
VL: B5 VL with V3Q, T10S, Q42K, P43A, D60S, A80P, V83F, V85T, Q100G

Kd [13]: 0.197 nM
koff [13]: 0.0002 s⁻¹
kon [13]: 1.02e+06 M⁻¹ s⁻¹
binding result (mouse TIGIT): no binding (tested: about 2 µg/mL)
IC50 [1]: 0.273 µg/mL
B10: recombinant mouse anti-human TIGIT antibody m10D8 (antibody, mouse IgG2a, V domains shown)
VH: B5 VH with Q1E, Q3K, R19K, A40N, G42D, G44R, N84S, R87K, A88S, V93M
VL: DIVMTQAHKFMSTSGGDRVSITCKASQDVKTAVSWYQQKPGQSPKLLIYWASTRHTGVPDRFTGSGSGTDYTLTISSVQAEDLALYYCQQHYSTPWTFGGGTKLEIKR
